Assay results published in paper PMC4937337.

Tested on: nsp1β;PCBP2 (PRRSV (SD01-08)?;human)
Test: EMSA
Conditions: EMSA: 10 mM Hepes pH 7.6, 150 mM KCl, 2 mM MgCl2, 1 mM DTT, 0.5 mM ATP, 5% glycerol, 100 µg/ml porcine tRNA, RNase inhibitor; 10 nM RNA; 30°C 10 min (room …)

Substance: PRRSV -2/-1 PRF RNA wt (58 nt)
- Kd: 130 nM
